# Patent US20110136724A1 (IPSEN PHARMA S A S, published 2011)
# Primed or numbered codes have the meaning given here. Where no end group is shown, it is not given here. [ ]: non-standard residue; d: D form. The star is where a group is joined. Psu″ = N-propylsuccinimide on the Cys thiol (Cys(Psu)), CCCN1C(=O)CC(*)C1=O; Psu(3) = N-propylsuccinimide on Cys S, CCCN1C(=O)CC(*)C1=O; Hsu = N-hexylsuccinimide on Cys S, CCCCCCN1C(=O)CC(*)C1=O; Psu = N-propylsuccinimide (on the Cys sulfur); 2Nal = N[C@@H](Cc1ccc2ccccc2c1)C(=O)O; d2Nal = N[C@H](Cc1ccc2ccccc2c1)C(=O)O; Cyclohexanecarbonyl = O=C(C1CCCCC1)*; Myristoyl = CCCCCCCCCCCCCC(=O)*; Cys(Psu) = not defined here; Decanoyl = CCCCCCCCCC(=O)*; Ac6c = NC1(C(=O)O)CCCCC1; Nle = CCCC[C@H](N)C(=O)O; Orn = NCCC[C@H](N)C(=O)O; Hexanoyl = CCCCCC(=O)*; Aib = CC(C)(N)C(=O)O
# T1: human recombinant GIP receptor (human, UniProt P48546 22-466)
# T1 construct: whole, on cells; Assayed as washed membranes of CHO-K1 cells expressing the receptor; also called hGIP receptor
# T1 sequence (looked up): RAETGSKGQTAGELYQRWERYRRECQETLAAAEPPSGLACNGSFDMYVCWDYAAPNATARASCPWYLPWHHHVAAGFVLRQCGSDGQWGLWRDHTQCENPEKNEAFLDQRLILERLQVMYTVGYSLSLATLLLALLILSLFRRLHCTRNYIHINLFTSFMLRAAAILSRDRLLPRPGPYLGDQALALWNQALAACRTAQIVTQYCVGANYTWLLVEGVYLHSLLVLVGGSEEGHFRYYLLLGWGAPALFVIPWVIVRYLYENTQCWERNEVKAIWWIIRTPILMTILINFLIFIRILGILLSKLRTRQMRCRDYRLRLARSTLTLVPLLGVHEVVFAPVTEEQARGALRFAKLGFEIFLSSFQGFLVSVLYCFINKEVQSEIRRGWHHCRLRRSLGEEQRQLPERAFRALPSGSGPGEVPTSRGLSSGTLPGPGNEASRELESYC
# B1: [Ac-A6c^7, Cys(Psu)^31]hGIP(7-31)-NH2 (peptide)
# peptide: XSDYSIAMDKIHQQDFVNWLLAQKC
# modifications: N-terminal acetyl (Ac); A6c at 7; Cys(Psu) at 31; hGIP numbering; C-terminal amide
# notes: Synthetic analogue of human GIP
# B2: [Ac-A6c^7, Orn^31(N-C(O)-(CH2)12-CH3)]hGIP(7-42)-OH (peptide)
# peptide: Ac-[Ac6c]SDYSIAMDKIHQQDFVNWLLAQK[Orn](Myristoyl)KKNDWKHNITQ-OH
# notes: Synthetic analogue of human GIP; also called [Ac-Ac6c^7, Orn(N-C(O)-(CH2)12-CH3)^31]hGIP(7-42)-OH
# B3: (4Hppa^2, 4Hyp^3, A6c^7)hGIP(2-42)-OH (peptide)
# peptide: XXGTFXSDYSIAMDKIHQQDFVNWLLAQKGKKNDWKHNITQ
# modifications: 4Hppa (3-(4-hydroxyphenyl)propionic acid) at 2; 4Hyp at 3; A6c at 7; hGIP numbering; C-terminal free acid
# notes: as for B1
# B4: (A5c^7, Nle^14)hGIP(6-30)-NH2 (peptide)
# peptide: FXSDYSIAXDKIHQQDFVNWLLAQK
# modifications: A5c (1-amino-1-cyclopentanecarboxylic acid) at 7; Nle (norleucine) at 14; hGIP numbering; C-terminal amide
# notes: as for B1
# B5: [Ac-Phe^6, A6c^7, Cys(Psu)^31]hGIP(6-31)-NH2 (peptide)
# peptide: FXSDYSIAMDKIHQQDFVNWLLAQKC
# modifications: N-terminal acetyl (Ac) on Phe 6; A6c at 7; Cys(Psu) at 31; hGIP numbering; C-terminal amide
# notes: as for B1
# B6: (Ac-A6c^7, Gln^43)hGIP(7-43)-OH (peptide)
# peptide: XSDYSIAMDKIHQQDFVNWLLAQKGKKNDWKHNITQQ
# modifications: N-terminal acetyl (Ac); A6c at 7; added Gln at 43; hGIP numbering; C-terminal free acid
# notes: Synthetic analogue of human GIP with an added residue 43
# B7: (Ac-A6c^7, Cys(Psu)^31]hGIP(7-34)-NH2 (peptide)
# peptide: XSDYSIAMDKIHQQDFVNWLLAQKCKKN
# modifications: N-terminal acetyl (Ac); A6c at 7; Cys(Psu) at 31; hGIP numbering; C-terminal amide
# notes: as for B1
# B8: (Ac-4Hyp^3, A6c^7)hGIP(3-42)-OH (peptide)
# peptide: XGTFXSDYSIAMDKIHQQDFVNWLLAQKGKKNDWKHNITQ
# modifications: N-terminal acetyl (Ac); 4Hyp (4-hydroxyproline) at 3; A6c at 7; hGIP numbering; C-terminal free acid
# notes: as for B1
# Biological target: T1, human recombinant GIP receptor
# Assay: radioligand competition, [125I]GIP on membranes of CHO-K1 cells expressing human GIP receptor
row,Binder,Ki
1,"FXSDYSIAMDKIHQQDFVNWLLAQK (N-terminal acetyl (Ac) on Phe 6; A6c at 7; hGIP numbering; C-terminal amide, Synthetic analogue of human GIP) [(Ac-Phe^6, A6c^7)hGIP(6-30)-NH2]",68.5 nM
2,"Ac-DYSIAMDKIHQQDFVNWLLAQKGK[Cys(Psu)]NDWKHNITQ-OH (reading uncertain, Synthetic analogue of human GIP) [[Ac-Asp^9, Cys(Psu)^33]hGIP(9-42)-OH]",472 nM
3,"FISDY[Aib]IA[Nle]DKIHQQDFVNWLLAQK-NH2 (Synthetic analogue of human GIP) [(Aib^11, Nle^14)hGIP(6-30)-NH2]",170 nM
4,"Decanoyl-[Ac6c]SDYSIAMDKIHQQDFVNWLLAQKGKK[Orn](Decanoyl)DWKHNITQ-OH (Synthetic analogue of human GIP) [[CH3-(CH2)8-C(O)-A6c^7, Orn^34(N-C(O)-(CH2)8-CH3)]hGIP(7-42)-OH]",164 nM
5,"Cyclohexanecarbonyl-SDYSIAMDKIHQQDFVNWLLAQK[Cys(Psu)]KKNDWKHNITQ-OH (reading uncertain, Synthetic analogue of human GIP) [[Chc-Ser^8, Cys(Psu)^31]hGIP(8-42)-OH]",403 nM
6,"[Ac6c]SDYSIAMDKIHQQDFVNWLLAQKGKK[Orn](Decanoyl)DWKHNITQ-OH (Synthetic analogue of human GIP) [[A6c^7, Orn^34(N-C(O)-(CH2)8-CH3)]hGIP(7-42)-OH]",274 nM
7,B1,48.3 nM
8,B2,178 nM
9,B3,294 nM
10,"XEGTFISDYXIAMDKIHQQDFVNWLLAQKGKKNDWKHNITQ (4Hppa at 2; A6c at 11; hGIP numbering; C-terminal free acid, Synthetic analogue of human GIP) [(4Hppa^2, A6c^11)hGIP(2-42)-OH]",91.8 nM
11,"XEGTFISDYSIXMDKIHQQDFVNWLLAQKGKKNDWKHNITQ (4Hppa at 2; Aib at 13; hGIP numbering; C-terminal free acid, Synthetic analogue of human GIP) [(4Hppa^2, Aib^13)hGIP(2-42)-OH)]",12.9 nM
12,"XPGTFISDYSIAXDKIHQQDFVNWLLAQKGKKNDWKHNITQ (4Hppa at 2; Pro at 3; Nle at 14; hGIP numbering; C-terminal free acid, Synthetic analogue of human GIP) [(4Hppa^2, Pro^3, Nle^14)hGIP(2-42)-OH]",800 nM
13,"XEGTFISDYSIAXDKIHQQDFVNWLLAQKGKKNDWKHNITQ (4Hppa at 2; A6c at 14; hGIP numbering; C-terminal free acid, Synthetic analogue of human GIP) [(4Hppa^2, A6c^14)hGIP(2-42)-OH]",50.4 nM
14,B4,734 nM
15,"Ac-[Ac6c]SDYSIAMDKIHQQDFVNWLLAQK[d2Nal]KKNDWKHNITQ-OH (X stands for the non-natural residues) [(Ac-A6c^7, D-2Nal^31)hGIP(7-42)-OH]",159 nM
16,"Hexanoyl-SDYSIAMDKIHQQDFVNWLLAQK[Cys(Psu)]KKNDWKHNITQ-OH (reading uncertain, Synthetic analogue of human GIP) [[CH3-(CH2)4-C(O)-Ser^8, Cys(Psu)^31]hGIP(8-42)-OH]",205 nM
17,B5,77.5 nM
18,"Ac-[Ac6c]SDYSIAMDKIHQQDFVNWLLAQKC(Psu(3))KKNDWKHNITQ-OH (Synthetic analogue of human GIP) [[Ac-A6c^7, Cys(Psu)^31]hGIP(7-42)-OH]",963 nM

row,Binder,Ki
1,"Ac-[Ac6c]SDYSIAMDKIHQQDFVNWLLAQKGKKNDWKHC(Psu″)ITQ-OH (Synthetic analogue of human GIP) [[Ac-A6c^7, Cys(Psu)^39]hGIP(7-42)-OH]",75.7 nM
2,"Ac-[Ac6c]SDYSIAMDKIHQQDFVNWLLAQKGKKNDC(Psu)KHNITQ-OH (Synthetic analogue of human GIP) [[Ac-A6c^7, Cys(Psu)^36]hGIP(7-42)-OH]",442 nM
3,"Ac-[Ac6c]SDYSIAMDKIHQQDFVNWLLAQKGKC(Psu)NDWKHNITQ-OH (Synthetic analogue of human GIP) [[Ac-A6c^7, Cys(Psu)^33]hGIP(7-42)-OH]",417 nM
4,"Ac-[Ac6c]SDYSIAMDKIHQQDFVNWLLAQKGKKC(Psu)DWKHNITQ-OH (Synthetic analogue of human GIP) [[Ac-A6c^7, Cys(Psu)^34]hGIP(7-42)-OH]",735 nM
5,"Ac-[Ac6c]SDYSIAMDKIHQQDFVNWLLAQKGC(Psu)KNDWKHNITQ-OH (Synthetic analogue of human GIP) [[Ac-A6c^7, Cys(Psu)^32]hGIP(7-42)-OH]",687 nM
6,"Ac-[Ac6c]SDYSIAMDKIHQQDFVNWLLAQKGKKNDWKC(Psu″)NITQ-OH (Synthetic analogue of human GIP) [[Ac-A6c^7, Cys(Psu)^38]hGIP(7-42)-OH]",333 nM
7,"Ac-[Ac6c]SDYSIAMDKIHQQDFVNWLLAQKGKKNDWC(Psu″)HNITQ-OH (Synthetic analogue of human GIP) [[Ac-A6c^7, Cys(Psu)^37]hGIP(7-42)-OH]",127 nM
8,"Ac-[Ac6c]SDYSIAMDKIHQQDFVNWLLAQKGKKNC(Psu)WKHNITQ-OH (Synthetic analogue of human GIP) [[Ac-A6c^7, Cys(Psu)^35]hGIP(7-42)-OH]",486 nM
9,"Ac-[Ac6c]SDYSIAMDKIHQQDFVNWLLAQKGKKNDWKHNC(Psu″)TQ-OH (Synthetic analogue of human GIP) [[Ac-A6c^7, Cys(Psu)^40]hGIP(7-42)-OH]",532 nM
10,"FXSDYSIAMDKIHQQDFVNWLLAQKC (A6c at 7; Cys(Psu) at 31; hGIP numbering; C-terminal amide, Synthetic analogue of human GIP) [[A6c^7, Cys(Psu)^31]hGIP(6-31)-NH2]",101 nM
11,"F[Ac6c]SDYSIAMDKIHQQDFVNWLLAQKC(Psu(3))KKNDWKHNITQ-OH (Synthetic analogue of human GIP) [[A6c^7, Cys(Psu)^31]hGIP(6-42)-OH]",277 nM
12,"FXSDYSIAXDKIHQQDFVNWLLAQK (A6c at 7; Nle at 14; hGIP numbering; C-terminal amide, Synthetic analogue of human GIP) [(A6c^7, Nle^14)hGIP(6-30)-NH2]",212 nM
13,B6,7.92 nM
14,B7,115 nM
15,"Ac-[Ac6c]SDYSIAMDKIHQQDFVNWLLAQK[2Nal]KKNDWKHNITQ-OH (Synthetic analogue of human GIP) [(Ac-A6c^7, 2Nal^31)hGIP(7-42)-OH]",194 nM
16,B8,546 nM
17,"[Ac6c]SDYSIAMDKIHQQDFVNWLLAQKC(Hsu)KKNDWKHNITQ-OH (Synthetic analogue of human GIP) [[A6c^7, Cys(Hsu)^31]hGIP(7-42)-OH]",772 nM
18,"Ac-F[Ac6c]SDYSIAMDKIHQQDFVNWLLAQKC(Psu″)KKNDWKHNITQ-OH (Synthetic analogue of human GIP) [[Ac-Phe^6, A6c^7, Cys(Psu)^31]hGIP(6-42)-OH]",574 nM
